Results published in patent US20240366726A1 (Genentech, published 2024).
Numbering of substitutions follows the chain as printed.

B1: XENP24306 (Fc fusion)
chain 1: NWVNVISDLKKIEDLIQSMHIDATLYTESNVHPSCKVTAMKCFLLELQVISLESGDASIHDTVQDLIILANNSLSSNGNVTESGCKECEELEEKNIKEFLQSFVHIVQMFINTSGGGGSEPKSSDKTHTCPPCPAPPVAGPSVFLFPPKPKDTLMISRTPEVTCVVVDVKHEDPEVKFNWYVDGVEVHNAKTKPREEEYNSTYRVVSVLTVLHQDWLNGKEYKCKVSNKALPAPIEKTISKAKGQPREPQVYTLPPSREEMTKNQVSLTCDVSGFYPSDIAVEWESDGQPENNYKTTPPVLDSDGSFFLYSKLTVDKSRWEQGDVFSCSVLHEALHSHYTQKSLSLSPGK
chain 2: ITCPPPMSVEHADIWVKSYSLYSRERYICNSGFKRKAGTSSLTECVLNKATNVAHWTTPSLKCIRGGGGSEPKSSDKTHTCPPCPAPPVAGPSVFLFPPKPKDTLMISRTPEVTCVVVDVKHEDPEVKFNWYVDGVEVHNAKTKPREEQYNSTYRVVSVLTVLHQDWLNGKEYKCKVSNKALPAPIEKTISKAKGQPREPQVYTLPPSREQMTKNQVKLTCLVKGFYPSDIAVEWESNGQPENNYKTTPPVLDSDGSFFLYSKLTVDKSRWQQGNVFSCSVLHEALHSHYTQKSLSLSPGK
notes: Never tested alone: every experiment used a combination of XENP24306 (~82%) and XENP32803 (~18%); Each result of the combination is written once for each of the two proteins; also called IL15/IL15Rα heterodimeric protein; XENP24306+XENP32803 (about 82% of the tested combination); copies: 1 + 1
B2: XENP32803 (Fc fusion)
chain 1: B1 chain 1
chain 2: B1 chain 2 with K100T
notes: Never tested alone: every experiment used a combination of XENP24306 (~82%) and XENP32803 (~18%); Each result of the combination is written once for each of the two proteins; also called IL15/IL15Rα heterodimeric protein; XENP24306+XENP32803 (about 18% of the tested combination); copies: 1 + 1

How the values were obtained:
[1] = target: T1, human CD122/CD132 on lymphocytes (NK cells and CD8+ T cells in human PBMCs) (human, UniProt P31785 23-369); assay: cell-based or functional assay
T1 sequence 1: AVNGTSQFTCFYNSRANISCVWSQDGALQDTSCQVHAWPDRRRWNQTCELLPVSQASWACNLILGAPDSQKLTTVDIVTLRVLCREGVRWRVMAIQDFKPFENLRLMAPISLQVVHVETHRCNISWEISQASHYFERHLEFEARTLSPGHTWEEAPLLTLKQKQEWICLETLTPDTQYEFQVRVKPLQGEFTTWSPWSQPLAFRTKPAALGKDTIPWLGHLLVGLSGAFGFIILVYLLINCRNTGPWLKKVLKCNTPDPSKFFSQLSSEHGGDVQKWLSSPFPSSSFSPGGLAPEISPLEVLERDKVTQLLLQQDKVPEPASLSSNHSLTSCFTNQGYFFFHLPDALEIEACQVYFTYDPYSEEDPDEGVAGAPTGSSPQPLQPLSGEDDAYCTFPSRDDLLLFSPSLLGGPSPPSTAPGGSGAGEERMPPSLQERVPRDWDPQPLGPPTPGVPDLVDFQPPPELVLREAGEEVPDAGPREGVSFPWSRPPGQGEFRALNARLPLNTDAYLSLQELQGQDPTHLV
T1 sequence 2: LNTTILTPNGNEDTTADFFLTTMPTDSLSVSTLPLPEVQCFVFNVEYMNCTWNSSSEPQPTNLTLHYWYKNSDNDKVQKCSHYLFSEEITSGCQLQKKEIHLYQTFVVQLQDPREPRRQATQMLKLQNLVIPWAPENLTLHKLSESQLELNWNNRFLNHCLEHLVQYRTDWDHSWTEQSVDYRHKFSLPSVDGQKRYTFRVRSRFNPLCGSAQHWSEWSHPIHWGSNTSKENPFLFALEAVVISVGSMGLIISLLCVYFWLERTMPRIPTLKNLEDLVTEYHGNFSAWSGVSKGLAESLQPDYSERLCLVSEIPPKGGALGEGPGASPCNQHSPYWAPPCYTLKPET

[2] = target: T2, cynomolgus monkey CD122/CD132 on lymphocytes (NK cells and CD8+ T cells in cynomolgus monkey PBMCs) (cynomolgus monkey, UniProt Q38J85 27-551; A0A2K5VGJ6 23-369); assay: cell-based or functional assay
T2 sequence (looked up) 1: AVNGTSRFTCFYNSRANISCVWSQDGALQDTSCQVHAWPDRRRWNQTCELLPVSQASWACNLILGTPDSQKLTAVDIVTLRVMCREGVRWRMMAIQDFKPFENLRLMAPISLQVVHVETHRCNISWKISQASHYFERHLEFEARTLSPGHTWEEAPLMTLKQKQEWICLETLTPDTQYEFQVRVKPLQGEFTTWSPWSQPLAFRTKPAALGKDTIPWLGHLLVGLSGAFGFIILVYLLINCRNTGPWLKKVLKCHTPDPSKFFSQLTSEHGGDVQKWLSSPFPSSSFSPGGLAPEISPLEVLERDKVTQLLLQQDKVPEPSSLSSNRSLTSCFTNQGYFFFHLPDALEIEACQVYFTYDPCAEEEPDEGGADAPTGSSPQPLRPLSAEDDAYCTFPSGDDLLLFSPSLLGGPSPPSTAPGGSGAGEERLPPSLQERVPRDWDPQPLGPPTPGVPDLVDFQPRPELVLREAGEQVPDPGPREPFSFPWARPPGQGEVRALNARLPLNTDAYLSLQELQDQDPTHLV
T2 sequence (looked up) 2: T1 sequence 2 with T14A, A16T, T22S, H141R, T228S, A326P

[3] = target: human complement component 1q (C1q) (human, UniProt P02745 23-245; P02746 28-253; P02747 29-245); assay: BLI; tested as XENP24306+XENP32803
cynomolgus monkey FcRn = target: T3, cynomolgus monkey FcRn (cynomolgus monkey, UniProt Q8SPV9 24-297; Q8SPW0 21-119); assay: Bio-Layer Interferometry, pH 6.0; tested as ~82%/~18% mixture
T3 construct: also called neonatal Fc receptor

mouse FcRn = target: T4, mouse FcRn (mouse, UniProt Q61559 22-297; P01887 21-119); assay: as above
T4 construct: also called neonatal Fc receptor
T4 sequence (looked up): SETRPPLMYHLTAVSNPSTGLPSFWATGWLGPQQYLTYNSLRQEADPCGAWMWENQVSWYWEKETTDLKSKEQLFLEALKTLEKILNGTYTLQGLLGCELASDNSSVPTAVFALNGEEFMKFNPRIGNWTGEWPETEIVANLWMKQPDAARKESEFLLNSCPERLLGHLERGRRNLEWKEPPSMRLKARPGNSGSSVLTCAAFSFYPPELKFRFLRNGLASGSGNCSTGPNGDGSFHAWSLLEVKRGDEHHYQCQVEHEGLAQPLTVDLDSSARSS
T4 sequence (b2m, looked up): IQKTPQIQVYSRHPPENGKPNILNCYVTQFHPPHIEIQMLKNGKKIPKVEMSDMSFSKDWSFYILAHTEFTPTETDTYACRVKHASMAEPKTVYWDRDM

human FcRn = target: T5, human FcRn (human, UniProt P55899 24-297; P61769 21-119); assay: as above
T5 construct: also called neonatal Fc receptor

T3 sequence (Q8SPV9 24-297 limits assumed, chain 1 of 2): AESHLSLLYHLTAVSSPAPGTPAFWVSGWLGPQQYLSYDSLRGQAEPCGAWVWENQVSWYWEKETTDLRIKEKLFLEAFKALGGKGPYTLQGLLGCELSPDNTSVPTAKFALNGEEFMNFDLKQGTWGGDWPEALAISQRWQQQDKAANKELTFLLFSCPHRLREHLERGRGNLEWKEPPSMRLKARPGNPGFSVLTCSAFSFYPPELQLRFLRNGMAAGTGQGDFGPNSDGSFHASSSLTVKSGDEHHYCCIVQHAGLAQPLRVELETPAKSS
T3 sequence (Q8SPW0 21-119 limits assumed, chain 2 of 2): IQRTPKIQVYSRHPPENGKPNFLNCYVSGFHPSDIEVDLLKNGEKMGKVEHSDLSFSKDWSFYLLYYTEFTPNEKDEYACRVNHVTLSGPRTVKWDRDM
Sequence of human complement component 1q (C1q) (P02745 23-245 limits assumed, chain 1 of 3): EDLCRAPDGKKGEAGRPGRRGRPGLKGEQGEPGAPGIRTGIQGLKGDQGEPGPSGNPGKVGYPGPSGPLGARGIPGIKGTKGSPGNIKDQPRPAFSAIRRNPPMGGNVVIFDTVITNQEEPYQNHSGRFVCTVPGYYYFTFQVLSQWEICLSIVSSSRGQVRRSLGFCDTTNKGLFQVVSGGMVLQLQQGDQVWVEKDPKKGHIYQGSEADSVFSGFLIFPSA
Sequence of human complement component 1q (C1q) (P02746 28-253 limits assumed, chain 2 of 3): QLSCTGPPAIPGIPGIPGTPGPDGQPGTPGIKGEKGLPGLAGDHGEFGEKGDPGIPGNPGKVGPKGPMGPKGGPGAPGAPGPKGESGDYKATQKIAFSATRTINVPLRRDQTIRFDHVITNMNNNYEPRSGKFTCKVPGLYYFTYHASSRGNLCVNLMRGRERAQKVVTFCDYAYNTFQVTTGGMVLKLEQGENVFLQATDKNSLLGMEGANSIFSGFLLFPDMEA
Sequence of human complement component 1q (C1q) (P02747 29-245 limits assumed, chain 3 of 3): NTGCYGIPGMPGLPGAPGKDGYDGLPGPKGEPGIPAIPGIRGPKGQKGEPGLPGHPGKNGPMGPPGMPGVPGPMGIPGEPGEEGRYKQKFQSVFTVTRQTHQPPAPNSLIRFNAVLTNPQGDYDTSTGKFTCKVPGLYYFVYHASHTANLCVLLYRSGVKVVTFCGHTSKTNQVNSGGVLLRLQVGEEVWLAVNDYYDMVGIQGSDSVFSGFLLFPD

Row | EC50 of human CD8+ T cell proliferation (Ki67+) in human PBMCs [1] | EC50 of human NK-cell proliferation (Ki67+) in human PBMCs [1] | potency on human CD8+ terminal effector T cells (Ki67 proliferation), fold lower than recombinant wild-type IL-15 [1] | potency on human CD8+ terminal effector T cells (Ki67 proliferation), fold lower than wild-type IL-15/wild-type IL-15Rα heterodimer Fc fusion XENP22853 [1] | EC50 of CD8+ T cell proliferation in cynomolgus monkey PBMCs [2] | EC50 of NK-cell proliferation in cynomolgus monkey PBMCs [2] | binding result [3] | binding result (cynomolgus monkey FcRn) | binding result (mouse FcRn) | binding result (human FcRn) | Binder
1 | 12.7 mg/L | 1.2 mg/L | ~900 fold | ~400 fold | 3.8 mg/L | 0.5 mg/L | no binding | binds | binds | binds | B1
2 | 12.7 mg/L | 1.2 mg/L | ~900 fold | ~400 fold | 3.8 mg/L | 0.5 mg/L | no binding | binds | binds | binds | B2
